Assays:
Experiment in all cases: flow cytometry, transfected cells
human CD33 N20D = human CD33 N20D (human, UniProt P20138 18-364)
human CD33 N20K = human CD33 N20K (human, UniProt P20138 18-364)
human CD33 P46F = human CD33 P46F (human, UniProt P20138 18-364)
human CD33 F21L = human CD33 F21L (human, UniProt P20138 18-364)
human CD33 N20G = human CD33 N20G (human, UniProt P20138 18-364)
human CD33 P19K = human CD33 P19K (human, UniProt P20138 18-364)
human CD33 N20T = human CD33 N20T (human, UniProt P20138 18-364)
Chain of human CD33 N20T (P20138 18-364 N20T limits assumed): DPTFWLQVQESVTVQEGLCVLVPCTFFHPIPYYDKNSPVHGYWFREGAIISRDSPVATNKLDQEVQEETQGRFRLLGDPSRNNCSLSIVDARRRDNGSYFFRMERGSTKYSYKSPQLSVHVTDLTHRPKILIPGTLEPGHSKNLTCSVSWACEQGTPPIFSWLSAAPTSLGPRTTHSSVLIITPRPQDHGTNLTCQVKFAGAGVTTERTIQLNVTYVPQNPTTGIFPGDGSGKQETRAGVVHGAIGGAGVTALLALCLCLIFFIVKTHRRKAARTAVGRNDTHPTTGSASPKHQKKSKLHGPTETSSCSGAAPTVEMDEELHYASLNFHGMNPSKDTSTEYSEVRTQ

human CD33 N20E = human CD33 N20E (human, UniProt P20138 18-364)
Chain of human CD33 N20E (P20138 18-364 N20E limits assumed): as the sequence (P20138 18-364 N20T limits assumed) above, with T3E counted along it

human CD33 F21I = human CD33 F21I (human, UniProt P20138 18-364)
Chain of human CD33 F21I (P20138 18-364 F21I limits assumed): as the sequence (P20138 18-364 N20T limits assumed) above, with T3N, F4I counted along it

human CD33 I47P = human CD33 I47P (human, UniProt P20138 18-364)
Chain of human CD33 I47P (P20138 18-364 I47P limits assumed): as the sequence (P20138 18-364 N20T limits assumed) above, with T3N, I30P counted along it

human CD33 F21V = human CD33 F21V (human, UniProt P20138 18-364)
Chain of human CD33 F21V (P20138 18-364 F21V limits assumed): as the sequence (P20138 18-364 N20T limits assumed) above, with T3N, F4V counted along it

human CD33 P19D = human CD33 P19D (human, UniProt P20138 18-364)
Chain of human CD33 P19D (P20138 18-364 P19D limits assumed): as the sequence (P20138 18-364 N20T limits assumed) above, with P2D, T3N counted along it

human CD33 W22N = human CD33 W22N (human, UniProt P20138 18-364)
Chain of human CD33 W22N (P20138 18-364 W22N limits assumed): as the sequence (P20138 18-364 N20T limits assumed) above, with T3N, W5N counted along it

human CD33 N20Y = human CD33 N20Y (human, UniProt P20138 18-364)
Chain of human CD33 N20Y (P20138 18-364 N20Y limits assumed): as the sequence (P20138 18-364 N20T limits assumed) above, with T3Y counted along it

Chain of human CD33 F21L (P20138 18-364 F21L limits assumed): as the sequence (P20138 18-364 N20T limits assumed) above, with T3N, F4L counted along it
Chain of human CD33 P19K (P20138 18-364 P19K limits assumed): as the sequence (P20138 18-364 N20T limits assumed) above, with P2K, T3N counted along it
Chain of human CD33 N20G (P20138 18-364 N20G limits assumed): as the sequence (P20138 18-364 N20T limits assumed) above, with T3G counted along it
Chain of human CD33 N20D (P20138 18-364 N20D limits assumed): as the sequence (P20138 18-364 N20T limits assumed) above, with T3D counted along it
Chain of human CD33 P46F (P20138 18-364 P46F limits assumed): as the sequence (P20138 18-364 N20T limits assumed) above, with T3N, P29F counted along it
Chain of human CD33 N20K (P20138 18-364 N20K limits assumed): as the sequence (P20138 18-364 N20T limits assumed) above, with T3K counted along it

binding result (human CD33 N20D): no binding (tested: below 20%)
binding result (human CD33 N20K): no binding (tested: below 20%)
binding result (human CD33 P46F): no binding (tested: below 20%)
binding result (human CD33 F21L): no binding (tested: below 20%)
binding result (human CD33 N20G): no binding (tested: below 20%)
binding result (human CD33 P19K): no binding (tested: below 20%)
binding result (human CD33 N20T): no binding (tested: below 20%)
binding result (human CD33 N20E): no binding (tested: below 20%)
binding result (human CD33 F21I): no binding (tested: below 20%)
binding result (human CD33 I47P): no binding (tested: below 20%)
binding result (human CD33 F21V): no binding (tested: below 20%)
binding result (human CD33 P19D): no binding (tested: below 20%)
binding result (human CD33 W22N): no binding (tested: below 20%)
binding result (human CD33 N20Y): no binding (tested: below 20%)
B1: Refmab #3 (antibody, human IgG1, V domains shown)
VH: QVQLVQSGAEVKKPGSSVKVSCKASGYTFTDYNMHWVRQAPGQGLEWIGYIYPYNGGTGYNQKFKSKATITADESTNTAYMELSSLRSEDTAVYYCARGRPAMDYWGQGTLVTVSS
VL: DIQMTQSPSSLSASVGDRVTITCRASESVDNYGISFMNWFQQKPGKAPKLLIYAASNQGSGVPSRFSGSGSGTDFTLTISSLQPDDFATYYCQQSKEVPWTFGQGTKVEIK
